For assay [1], the target named is T1, Multiple peptide resistance factor (MprF) from Pseudomonas aeruginosa, full length (Pseudomonas aeruginosa PAO1).
T1 construct: MprF of Pseudomonas aeruginosa, gene cloned from PAO1 genomic DNA into p7XC3H; full length, monomer of 96 kDa; The monomeric SEC fraction was pooled for downstream experiments; also called PaMprF; WT PaMprF; source: E. coli C41, purified (Ni Sepharose, SEC); reconstituted into SaposinA-lipid nanoparticles for cryo-EM
T1 chain: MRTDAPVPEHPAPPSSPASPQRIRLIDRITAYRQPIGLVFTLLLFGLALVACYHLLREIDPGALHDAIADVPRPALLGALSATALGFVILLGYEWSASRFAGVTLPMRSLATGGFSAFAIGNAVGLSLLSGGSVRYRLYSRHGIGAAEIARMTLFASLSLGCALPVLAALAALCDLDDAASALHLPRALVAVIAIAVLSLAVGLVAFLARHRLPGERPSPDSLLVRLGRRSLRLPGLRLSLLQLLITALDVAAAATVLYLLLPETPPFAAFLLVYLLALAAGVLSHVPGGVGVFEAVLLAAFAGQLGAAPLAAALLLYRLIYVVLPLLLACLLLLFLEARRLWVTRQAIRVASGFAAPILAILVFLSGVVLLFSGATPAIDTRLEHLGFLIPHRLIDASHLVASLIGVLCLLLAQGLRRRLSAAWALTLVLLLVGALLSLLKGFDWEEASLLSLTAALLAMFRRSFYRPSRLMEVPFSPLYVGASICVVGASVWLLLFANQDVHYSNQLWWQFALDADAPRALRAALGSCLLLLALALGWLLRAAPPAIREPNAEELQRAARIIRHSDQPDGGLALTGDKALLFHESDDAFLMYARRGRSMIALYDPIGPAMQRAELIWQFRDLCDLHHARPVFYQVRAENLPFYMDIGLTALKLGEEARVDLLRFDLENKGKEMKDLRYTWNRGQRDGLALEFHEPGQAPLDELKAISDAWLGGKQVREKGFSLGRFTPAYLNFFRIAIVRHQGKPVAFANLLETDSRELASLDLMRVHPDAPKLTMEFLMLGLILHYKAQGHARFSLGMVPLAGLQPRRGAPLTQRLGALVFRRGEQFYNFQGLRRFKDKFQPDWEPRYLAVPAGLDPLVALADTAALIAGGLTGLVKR
The assay is described as follows: cryo-EM structure; PaMprF in SaposinA-lipid nanoparticles (POPC:POPG 7:3 mol/mol), separated by SEC, mixed with a 1.2x molar excess of Sb29. The note with it: both partners purified.

Assay [2] concerns the target T2, Truncated PaMprF construct of residues 1 to 545 (TM region) (Pseudomonas aeruginosa PAO1).
T2 construct: MprF of Pseudomonas aeruginosa (PAO1), residues 1 to 545, representing the transmembrane region; also called truncated form of PaMprF representing the TM region
T2 chain: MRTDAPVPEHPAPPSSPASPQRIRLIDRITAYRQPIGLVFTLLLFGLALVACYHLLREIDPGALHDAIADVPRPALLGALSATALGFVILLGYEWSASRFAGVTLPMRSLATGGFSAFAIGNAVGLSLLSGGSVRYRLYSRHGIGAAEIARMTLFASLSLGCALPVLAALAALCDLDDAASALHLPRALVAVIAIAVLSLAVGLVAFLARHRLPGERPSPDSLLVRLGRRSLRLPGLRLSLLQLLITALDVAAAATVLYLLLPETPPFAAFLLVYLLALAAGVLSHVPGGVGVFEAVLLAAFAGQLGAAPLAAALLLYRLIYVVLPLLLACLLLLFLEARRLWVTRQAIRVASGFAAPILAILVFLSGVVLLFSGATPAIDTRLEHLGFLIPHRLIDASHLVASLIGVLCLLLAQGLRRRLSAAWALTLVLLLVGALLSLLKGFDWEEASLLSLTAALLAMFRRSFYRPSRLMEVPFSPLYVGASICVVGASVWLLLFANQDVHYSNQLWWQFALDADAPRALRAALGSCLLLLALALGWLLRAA
The assay is described as follows: pull-down; truncated PaMprF construct of residues 1 to 545 with sybodies; who was held is not told.

From paper PMC11980842, “MprF from Pseudomonas aeruginosa is a promiscuous lipid scramblase with broad substrate specificity” (Science Advances, 2025) come the findings set out here.

B1: Sybody 29 (synthetic nanobody against PaMprF) (VHH)
VHH: GVQLVESGGGLVQAGGSLRLSCAASGFPVSSAWMAWYRQAPGKEREWVAAIFSAGQKTRYADSVKGRFTISRDNAKNTVYLQMNSLKPEDTAVYYCNVKDTGHWWDIYDYWGQGTQVTVSA
notes: synthetic nanobody from the loop sybody sublibrary; the structure of its complex with PaMprF was deposited as PDB 9GOE; Selected by one round of ribosome display and two rounds of phage display against biotinylated full-length PaMprF; also called Sb29
With B1, the binding result in assay [1] and in assay [2] was “binds” each time.
